Several values for one entry are separate records, joined by “and”; a condition that tells them apart may be missing. Equal entries are not always repeated.
Molecular target: Recombinant Mip (25 kDa) (L. pneumophila) (UniProt Q5ZXE0)
Test: co-IP

| Substance | antibody signal from Western blot (ImageJ) (relative units) | band intensity in Coomassie stained gel (ImageJ) (relative units) | band intensity at 15 kDa in Coomassie stained gel (ImageJ) (relative units) |
| --- | --- | --- | --- |
| Flagellin FlaA (LPC_0756), native (natural protein) | 4380 and 4310 | 5680 and 5740 | – |
| Lpc2061-6xHis-Tag (natural protein) | 4690 and 4520 | 1900 and 795 | 4600 and 7390 |
| SspB-Strep-TagII (natural protein) | 5030 and 5180 | 4300 and 4240 | – |

Reference: article PMC9670971
